# Laboratory results as given in publication PMC12393501, “Recruitment of Mre11 to recombination sites during meiosis” (Research Square, 2025).
# B1: HisSUMO-tagged Mer2 [S. cerevisiae] / MBP-tagged Mre11-C49 peptide [S. cerevisiae] (parent)
# chain 1: SYGLLNGRKTKTKTRPAASTKTASRRGKGRASRTPKTDILGSLLAKKRK
# chain 2: MVARGRTDEISTDVSEANSEHSLMITETSSPFRSIFSHSGKVANAGALEESDKQILEWAGKLELESMELRENSDKLIKVLNENSKTLCKSLNKFNQLLEQDAATNGNVKTLIKDLASQIENQLDKVSTAMLSKGDEKKTKSDSSYRQVLVEEISRYNSKITRHVTNKQHETEKSMRCTQEMLFNVGSQLEDVHKVLLSLSKDMHSLQTRQTALEMAFREKADHAYDRPDVSLNGTTLLHDMDEAHDKQRKKSVPPPRMMVTRSMKRRRSSSPTLSTSQNHNSEDNDDASHRLKRAARTIIPWEELRPDTLESEL
# Variants of: B1
# Assay: co-expression Ni-NTA pulldown, anti-MBP immunoblot quantification
# Details: with MBP-tagged Mre11-C49 peptide [S. cerevisiae]; co-expressed in E. coli; at least seven independent samples; parent: 1; read off a plot
row,Variant,ratio to parent
1,chain 2 E50A Q54A E57A K61A,0.27
